Test results from PMC7954794, “Protein context shapes the specificity of SH3 domain-mediated interactions in vivo” (Nature Communications, 2021).

Experiments:
Format in all cases: cell-based, Saccharomyces cerevisiae
[1] = system: ABP1; assay: DHFR-PCA on solid medium, bait ABP1 (Fig. 1B); conditions: bait ABP1, label = prey; 2-4 replicates
Description: (§1) Supplement 41467_2021_21873_MOESM8_ESM.xlsx, sheet "Fig1B" | column: medsize; medrep; Ratio; Score

[2] = system: BZZ1-1; assay: DHFR-PCA on solid medium, bait BZZ1-1 (Fig. 1B); conditions: bait BZZ1-1, label = prey; 4 replicates
Description: Supplement 41467_2021_21873_MOESM8_ESM.xlsx, sheet "Fig1B" | column: medsize; medrep; Score

[3] = system: BEM1-1; assay: DHFR-PCA on solid medium, bait BEM1-1 (Fig. 1B); conditions: bait BEM1-1, label = prey; for medrep (log2 median colony size normalized to plate background, PCA score): 2-8 replicates
Description: as §1

[4] = system: BEM1-2; assay: DHFR-PCA on solid medium, bait BEM1-2 (Fig. 1B); conditions: bait BEM1-2, label = prey; 2-8 replicates
Description: as §1

[5] = system: BBC1; assay: DHFR-PCA on solid medium, bait BBC1 (Fig. 1B); conditions: bait BBC1, label = prey; 2-4 replicates
Description: as §1

[6] = system: BOI2; assay: DHFR-PCA on solid medium, bait BOI2 (Fig. 1B); conditions: bait BOI2, label = prey; 3-8 replicates
Description: as §1

[7] = system: 575 putative partners (preys) of 22 WT SH3-containing proteins; assay: DHFR-PCA on solid medium, WT and SH3-deleted baits (Fig. 1B); set-up: key to Score: 0: SH3-independent; 1: SH3-dependent PPIs; 2: SH3-inhibited PPIs; conditions: for medrep (log2 median colony size normalized to plate background, PCA score): bait SLA1-3, DHFR-PCA, label = prey, Replicates 4 (2 for YCR009C, YDR388W, YIL033C); for Score: bait SLA1-3, label = prey
Method in brief: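 In S. cerevisiae, 22 SH3-containing baits fused genomically to DHFR F[1,2], either WT or with each SH3 replaced via CRISPR by a poly-Gly/Ser linker, screened against 575 DHFR F[3] preys plus 40 negative controls in 1536 arrays, preys duplicated at randomized positions.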

[8] = system: BUD14; assay: DHFR-PCA on solid medium, bait BUD14 (Fig. 1B); conditions: bait BUD14, label = prey; for medrep (log2 median colony size normalized to plate background, PCA score): 4 replicates
Description: as §1

[9] = system: BOI1; assay: DHFR-PCA on solid medium, bait BOI1 (Fig. 1B); conditions: bait BOI1, label = prey; 3-8 replicates
Description: as §1

[10] = system: Hua2 and Lsb3; assay: Deep mutational scanning quadrant of Abp1 SH3 (Hua2 and Lsb3 DMS scores); conditions: class of mutation by HUA2 and LSB3 DMS scores
[11] = system: Hua2; assay: Deep mutational scanning of Abp1 SH3, Abp1-Hua2 DHFR-PCA (DMS score); conditions: for HUA2_MTX2 (frequency normalized to the reference condition): Abp1 SH3 amino acid mutation; for HUA2_MTX2 (frequency normalized to the reference condition) / HUA2_MTX2 (frequencies normalized to the reference condition): MTX2; for HUA2_MTX2 (frequencies normalized to the reference condition) / HUA2_MTX2: Abp1-Hua2 DHFR-PCA, frequencies normalized to the reference condition; for HUA2_MTX2: amino acid level
Method in brief: (§2)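 Abp1 SH3 variants from NNN codon saturation mutagenesis at all 58 positions were reintegrated genomically in yeast by CRISPR, pooled, and mated with DHFR F[3] prey strains. Diploids underwent two 72 h liquid DHFR-PCA selections at 30 °C, and mutant abundance was read by Illumina sequencing against the pre-selection reference.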

[12] = system: Lsb3; assay: Deep mutational scanning of Abp1 SH3, Abp1-Lsb3 DHFR-PCA (DMS score); conditions: for LSB3_MTX2 (frequency normalized to the reference condition): Abp1 SH3 amino acid mutation; for LSB3_MTX2 (frequency normalized to the reference condition) / LSB3_MTX2 (frequencies normalized to the reference condition): MTX2; for LSB3_MTX2 (frequencies normalized to the reference condition) / LSB3_MTX2: Abp1-Lsb3 DHFR-PCA, frequencies normalized to the reference condition; for LSB3_MTX2: amino acid level
Method in brief: as §2

[13] = system: Hua2 and Lsb3; assay: Deep mutational scanning of Abp1 SH3: combined class (quadrant) from Abp1-Hua2 and Abp1-Lsb3 DHFR-PCA; conditions: class by DMS scores with Hua2 and Lsb3 (Neutral, Dest. both, Dest. Hua2, Dest. Lsb3)
[14] = system: Hua2 and Lsb3; assay: Deep mutational scanning of Abp1 SH3, quadrant classification from Hua2 and Lsb3 DMS scores; conditions: class from hua2sc and lsb3sc
[15] = system: Hua2 and Lsb3; assay: Deep mutational scanning of Abp1 SH3, quadrant by Hua2 and Lsb3 DMS scores
[16] = only significant differences showed, PPIs completely lost have a ratio of 0.1 and the gained PPIs 2.5
[17] = frequencies scaled to the synonymous mutation distribution, HUA2 prey
[18] = frequencies scaled to the synonymous mutation distribution, LSB3 prey
[19] = Hua2, frequencies scaled to the synonymous mutation distribution (DMS score)
[20] = Lsb3, frequencies scaled to the synonymous mutation distribution (DMS score)
[21] = Abp1-Hua2, frequencies scaled to the synonymous mutation distribution (DMS score)
[22] = Abp1-Lsb3, frequencies scaled to the synonymous mutation distribution (DMS score)

B1: YHR064C (protein, UniProt P38788 1-538, looked up)
Ribosome-associated complex …: MSSPVIGITFGNTSSSIAYINPKNDVDVIANPDGERAIPSALSYVGEDEYHGGQALQQLIRNPKNTIINFRDFIGLPFDKCDVSKCANGAPAVEVDGKVGFVISRGEGKEEKLTVDEVVSRHLNRLKLAAEDYIGSAVKEAVLTVPTNFSEEQKTALKASAAKIGLQIVQFINEPSAALLAHAEQFPFEKDVNVVVADFGGIRSDAAVIAVRNGIFTILATAHDLSLGGDNLDTELVEYFASEFQKKYQANPRKNARSLAKLKANSSITKKTLSNATSATISIDSLADGFDYHASINRMRYELVANKVFAQFSSFVDSVIAKAELDPLDIDAVLLTGGVSFTPKLTTNLEYTLPESVEILGPQNKNASNNPNELAASGAALQARLISDYDADELAEALQPVIVNTPHLKKPIGLIGAKGEFHPVLLAETSFPVQKKLTLKQAKGDFLIGVYEGDHHIEEKTLEPIPKEENAEEDDESEWSDDEPEVVREKLYTLGTKLMELGIKNANGVEIIFNINKDGALRVTARDLKTGNAVKGEL
medrep (log2 median colony size normalized to plate background, PCA score) [1]: 4.8359 | medrep (log2 median colony size normalized to plate background, PCA score) [2]: 2.391 | medrep (log2 median colony size normalized to plate background, PCA score) [3]: 1.993 | Ratio (SH3-deleted/WT medrep) [3, 16]: 0.1 | medrep (log2 median colony size normalized to plate background, PCA score) [4]: 1.993 | medrep (log2 median colony size normalized to plate background, PCA score) [5]: 4.121 | medrep (log2 median colony size normalized to plate background, PCA score) [6]: 2.6006 | medrep (log2 median colony size normalized to plate background, PCA score) [7]: 4.584 | Score [7]: 0 | medrep (log2 median colony size normalized to plate background, PCA score) [8]: 1.869 | Ratio (SH3-deleted/WT medrep) [8, 16]: 0.1

B2: YIL033C (protein, UniProt P07278 2-416, looked up)
cAMP-dependent protein kinase …: VSSLPKESQAELQLFQNEINAANPSDFLQFSANYFNKRLEQQRAFLKAREPEFKAKNIVLFPEPEESFSRPQSAQSQSRSRSSVMFKSPFVNEDPHSNVFKSGFNLDPHEQDTHQQAQEEQQHTREKTSTPPLPMHFNAQRRTSVSGETLQPNNFDDWTPDHYKEKSEQQLQRLEKSIRNNFLFNKLDSDSKRLVINCLEEKSVPKGATIIKQGDQGDYFYVVEKGTVDFYVNDNKVNSSGPGSSFGELALMYNSPRAATVVATSDCLLWALDRLTFRKILLGSSFKKRLMYDDLLKSMPVLKSLTTYDRAKLADALDTKIYQPGETIIREGDQGENFYLIEYGAVDVSKKGQGVINKLKDHDYFGEVALLNDLPRQATVTATKRTKVATLGKSGFQRLLGPAVDVLKLNDPTRH
medrep (log2 median colony size normalized to plate background, PCA score) [1]: 3.25 | medrep (log2 median colony size normalized to plate background, PCA score) [2]: 2.099 | medrep (log2 median colony size normalized to plate background, PCA score) [3]: 1.8558 | medrep (log2 median colony size normalized to plate background, PCA score) [4]: 1.8558 | medrep (log2 median colony size normalized to plate background, PCA score) [5]: 2.137 | medrep (log2 median colony size normalized to plate background, PCA score) [6]: 1.723 | medrep (log2 median colony size normalized to plate background, PCA score) [7]: 2.8 | Score [7]: 0 | medrep (log2 median colony size normalized to plate background, PCA score) [9]: 2.0471 | medrep (log2 median colony size normalized to plate background, PCA score) [8]: 1.967

B3: ABP1 A3A (protein, UniProt P15891 2-592, looked up)
Actin-binding protein: ALEPIDYTTHSREIDAEYLKIVRGSDPDTTWLIISPNAKKEYEPESTGSSFHDFLQLFDETKVQYGLARVSPPGSDVEKIIIIGWCPDSAPLKTRASFAANFAAVANNLFKGYHVQVTARDEDDLDENELLMKISNAAGARYSIQTSSKQQGKASTPPVKKSFTPSKSPAPVSKKEPVKTPSPAPAAKISSRVNDNNDDDDWNEPELKERDFDQAPLKPNQSSYKPIGKIDLQKVIAEEKAKEDPRLVQKPTAAGSKIDPSSDIANLKNESKLKRDSEFNSFLGTTKPPSMTESSLKNDDDKVIKGFRNEKSPAQLWAERKAKQNSGNAETKAEAPKPEVPEDEPEGEPDVKDLKSKFEGLAASEKEEEEMENKFAPPPKKSEPTIISPKPFSKPQEPVKAEEAEQPKTDYKKIGNPLPGMHIEADNEEEPEENDDDWDDDEDEAAQPPLPSRNVASGAPVQKEEPEQEEIAPSLPSRNSIPAPKQEEAPEQAPEEEIEEEAEEAAPQLPSRSSAAPPPPPRRATPEKKPKENPWATAEYDYDAAEDNELTFVENDKIINIEFVDDDWWLGELEKDGSKGLFPSNYVSLGN
modifications: synonymous A3A codon
quadrant [10]: Neutral | HUA2_MTX2 (frequency normalized to the reference condition) ([11]; HUA2 prey): 1.172 | hua2sc (DMS score) [11, 17]: -0.4405 | LSB3_MTX2 (frequency normalized to the reference condition) ([12]; LSB3 prey): 1.292 | lsb3sc (DMS score) [12, 18]: -0.2087

B4: ABP1 I25I (protein, UniProt P15891 2-592, looked up)
Actin-binding protein: B3 Actin-binding protein
modifications: synonymous codon change I25
HUA2_MTX2 (frequencies normalized to the reference condition) [11]: 1.723 | hua2sc (DMS score) [11, 19]: 0.1101 | LSB3_MTX2 (frequencies normalized to the reference condition) [12]: 1.319 | lsb3sc (DMS score) [12, 20]: -0.181 | quadrant [13]: Neutral

B5: ABP1 N27N (protein, UniProt P15891 2-592, looked up)
Actin-binding protein: B3 Actin-binding protein
modifications: synonymous change N27N in SH3 domain
HUA2_MTX2 (frequencies normalized to the reference condition) [11]: 1.61 | hua2sc (DMS score) [11, 19]: -0.002773 | LSB3_MTX2 (frequencies normalized to the reference condition) [12]: 1.694 | lsb3sc (DMS score) [12, 20]: 0.1932 | quadrant [13]: Neutral

B6: ABP1 E29E (protein, UniProt P15891 2-592, looked up)
Actin-binding protein: B3 Actin-binding protein
modifications: synonymous codon change E29E
HUA2_MTX2 (frequencies normalized to the reference condition) [11]: 1.834 | hua2sc (DMS score) [11, 19]: 0.2208 | LSB3_MTX2 (frequencies normalized to the reference condition) [12]: 1.788 | lsb3sc (DMS score) [12, 20]: 0.2879 | quadrant [13]: Neutral

B7: ABP1 L37L (protein, UniProt P15891 2-592, looked up)
Actin-binding protein: B3 Actin-binding protein
modifications: synonymous codon change L37L in SH3
quadrant [14]: Neutral | hua2sc (DMS score) [11, 21]: -0.0161 | HUA2_MTX2 [11]: 1.597 | lsb3sc (DMS score) [12, 22]: 0.2222 | LSB3_MTX2 [12]: 1.722

B8: ABP1 T4T (protein, UniProt P15891 2-592, looked up)
Actin-binding protein: B3 Actin-binding protein
modifications: synonymous T4T codon change
quadrant [10]: Neutral | HUA2_MTX2 (frequency normalized to the reference condition) ([11]; HUA2 prey): 1.763 | hua2sc (DMS score) [11, 17]: 0.1499 | LSB3_MTX2 (frequency normalized to the reference condition) ([12]; LSB3 prey): 1.639 | lsb3sc (DMS score) [12, 18]: 0.1386

B9: ABP1 K42K (protein, UniProt P15891 2-592, looked up)
Actin-binding protein: B3 Actin-binding protein
modifications: synonymous codon K42K
quadrant [14]: Neutral | hua2sc (DMS score) [11, 21]: -0.1876 | HUA2_MTX2 [11]: 1.425 | lsb3sc (DMS score) [12, 22]: 0.08611 | LSB3_MTX2 [12]: 1.586

B10: ABP1 G44G (protein, UniProt P15891 2-592, looked up)
Actin-binding protein: B3 Actin-binding protein
modifications: synonymous codon change G44G
HUA2_MTX2 = frequencies normalized to the reference condition ([11]; Hua2, MTX2, amino acid format): 1.505 | hua2sc = Frequencies scaled to the synonymous mutation distribution (DMS score) ([11]; Hua2, scaled to the synonymous mutation distribution): -0.1077 | quadrant [15]: Neutral | LSB3_MTX2 = frequencies normalized to the reference condition ([12]; Lsb3, MTX2, amino acid format): 1.253 | lsb3sc = Frequencies scaled to the synonymous mutation distribution (DMS score) ([12]; Lsb3, scaled to the synonymous mutation distribution): -0.247
